We go through one molecule from patent publication US20210047373A1, “BETA BARREL POLYPEPTIDES AND METHODS FOR THEIR USE” (UNIVERSITY OF WASHINGTON, priority 2018, published 2021).

“Also recorded” adds a separate entry of the source.

Details of series [1]: species or system E. coli. From the text: (§1) The sequences of these designs are not related to those of proteins with known structure (BLAST E-values ranged from 0.11 to 1.9 against the non-redundant protein database) and fold into the designed structure in silico (FIG. 2A). Synthetic genes encoding the designs were expressed in E. coli. […] The crystal structure of BB1 solved at 1.6 Å resolution was very close to the design model (within 1.4 Å RMSD over 99 residues of the 109 residues, FIG. 2F-G, deviations from the design are shown in FIG. 10) and had no close structural homolog in the PDB (highest TM-score <0.8). Essentially all of the key features of the design model are found in the crystal structure. The cross-section of the structure resembles the square cavity of the design model, which is not observed in any existing natural β-barrel crystal structures (FIG. 21), and is shaped by the designed glycine kinks. All 7 designed turns and β-bulges are correctly recapitulated in the crystal structure (FIG. 2H,J), along with the 3-10 helix and tryptophan corner (FIG. 2K).
(§2) Protein expression and purification. Genes encoding the nonfunctional β-barrel designs (41 from parametric design and 4 from fragment-base design) were synthesized and cloned into the pET-29 vector (GenScript, Inc). Plasmids were then transformed into BL21*(DE3) E. coli strain (NEB, Inc). […]

Series [2] is described as follows: Circular dichroism, thermal and GuHCl denaturation. In kind it is physicochemical. The method, then:
Circular dichroism (CD). Purified protein samples were prepared at 0.5 mg/ml in 20 mM Tris buffer (150 mM NaCl, pH8.0) or PBS buffer (25 mM phosphate, 150 mM NaCl, pH7.4). Wavelength scans from 195 nm to 260 nm were recorded at 25 degrees Celsius, 75 degrees Celsius, 95 degrees Celsius and cooling back to 25 degrees Celsius. Thermal denaturation was monitored at 220 nm or 226 nm from 25 degrees Celsius to 95 degrees Celsius. Near-UV wavelength scan from 240 nm to 320 nm and tryptophan fluorescence emission were recorded in the absence and presence of 5M guanidinium chloride (GuHCl). Chemical denaturation in GuHCl was monitored by both tryptophan fluorescence and near-UV CD signal at 285 nm. The concentration of the GuHCl stock solution was measured with a refractometer (Spectronic Instruments, Inc). Far-UV CD experiments were performed on an AVIV model 420 CD spectrometer (Aviv Biomedical, Inc). Near-UV CD and tryptophan fluorescence experiments were performed on a Jasco J-1500 CD spectrometer (Jasco, Inc). Protein concentrations were determined by 280 nm absorbance with a NanoDrop™spectrophotometer (ThermoScientific, Inc). Melting temperatures were estimated by smoothing the sparse data with a Savitsky-Golay filter of order 3 and approximating the smoothed data with a cubic spline to compute derivatives. Reported Tm values are the inflection points of the melting curves.

A short description of series [3]: Size-exclusion chromatography (SEC, SEC-MALS). In kind it is physicochemical. The conditions noted are these: oligomeric state.
Excerpt: as §1, §2

B1: BB1: SEQ ID NO 1; nonfunctional de novo β-barrel design, stable monomer (protein)
chain: MVDAAQYFPGTWEFRFRSSDGKEYRGTVEMQPRTPTEIEIRFKGQSSDGRPVEGRGSIEVRSPYEYRFEMQSSDGARWEGTLQVRSPDSVEVRFKSSDGREYSGEFRRQE
modifications: (1)..(1) optionally absent
As to B1, in series [1], the Solubility entry is recorded as “yes”. Besides, the “β CD spectrum” value in series [2] is listed as “yes”. For the same molecule, the Thermal stability result in series [2] (CD) was “unchanged at 95 °C; also recorded: stable at 95 degree Celsius; also recorded: does not temperature denature”. Also, in series [2] (near UV CD signal and tryptophan fluorescence), the “Cooperative unfolding transition in guanidine” value is 2.5 M. Also, the SEC result in series [3] is “monomer”.
